Laboratory results published in US20190225670A1, “COMPOUNDS AND METHODS FOR ACTIVATING TIE2 SIGNALING” (ASCLEPIX THERAPEUTICS, LLC, priority 2016, published 2019).

Experiments:
[1] = system: MEC monolayers; experiment: FITC Transwell permeability assay; type: cell-based, human; conditions: each agent alone
Protocol: The integrity of these junctions is also important for the regulation of monolayer permeability by controlling the size of intercellular openings. The effect of the AXT107 on EC permeability was further investigated by the transendothelial diffusion of FITC-labeled dextran across MEC monolayers seeded onto permeable Transwell® substrates.
Transwell, twenty-four-well inserts (Corning) were coated with 7.5 μg/cm^2 FN1 for two hours at 37° C., aspirated, and then dried for thirty minutes at room temperature. Wells were then seeded with 7.5×10^4 MECs in 100 μl of EBM-2 media (without phenol red) and allowed to settle for thirty minutes at room temperature. 1 ml of EGM-2 media was then added to the bottom chamber and an additional 200 μl to the top chamber. The plate was incubated for twenty-four hours at 37° C. after which the media was aspirated and an additional 7.5×10^4 MECs were plated in each well as described above. After forty-eight hours at 37° C., the media was aspirated from both chambers and the cells were washed twice in dPBS containing Ca^2+ and Mg^2+, once with EBM-2 media (without phenol red) and serum starved in EBM-2 media applied to both chambers for two hours at 37° C. After this incubation, 100 μM AXT107 or an equivalent amount of DMSO vehicle was added and incubated for an additional ninety minutes. In the top chamber, the cells were then treated with 200 ng/ml Ang2, 100 ng/ml VEGFA, both, or PBS control and in the bottom chamber, the cells were then treated with 25 μg/ml FITC-Dextran (40 kDa MW). AXT107 was also added in both chambers to maintain a concentration of 100 μM. After three hours, 10 μl was removed from the top chamber of each well and mixed with 90 μl of water in a clear bottom, 96-well plate. Fluorescence values for each sample were calculated using a Perkin Elmer plate reader.

[2] = system: Tie2; experiment: Western blot of phospho-Tie2 (Y992) in MEC monolayers treated with AXT107 and angiopoietin; type: cell-based, human; conditions: ligand alone, no AXT107
Protocol: A confluent monolayer of human microvascular endothelial cells (HMEC) was serum starved with EBM-2 overnight. After a 90 min treatment with AXT107 at concentrations of 0, 10, 32, and 100 μM, the cells were treated for 15 min with 1 mM sodium orthovanadate. Next the cells were treated with Angiopoietin-2 (Ang-2) at 200 ng/mL for 15 min. Following cell lysis, the lysates were immunoblotted for pTie2 (Y992), pSTAT3 (Y705), and pAkt (S473).
To investigate the effects of the integrin inhibitor AXT107 on Tie2 signaling, confluent monolayers of microvascular endothelial cells (MECs) on fibronectin-coated dishes were treated with various concentrations of AXT107 followed by exposure to the Tie2 ligands Ang1 or Ang2.
For Ang1/2 signaling investigations, cell culture dishes (10 cm diameter) were coated with 5 μg/ml fibronectin (FN1; Sigma-Aldrich, St. Louis, Mo.) for two hours at 37° C. The FN1 solution was then removed by aspiration and 5×10^6 microvascular endothelial cells (MECs; Lonza, Walkersville, Md.) were plated in EGM-2MV media (Lonza) and cultured for forty-eight hours at 37° C. The cells were then serum starved for sixteen hours in serum-free EGM-2 base media (Lonza). AXT107 (0-100 μM, as indicated) was subsequently added to each culture and incubated for seventy-five minutes at 37° C. The cultures were then treated with 1 mM sodium vanadate (New England Biolabs, Ipswich, Mass.) for fifteen minutes to enhance the phospho-Tie2 signal followed by stimulation with 200 ng/ml angiopoietin (R&D Systems, Minneapolis, Minn.) for an additional fifteen minutes. The cells were then transferred to ice, washed twice with ice cold Dulbecco's phosphate-buffered saline (dPBS) containing Ca^2+ and Mg^2+, and collected by scraping in 500 μl of 1×Blue Loading Buffer (Cell Signaling, Danvers, Mass.). Lysate samples were then sonicated, boiled, and resolved by SDS-PAGE. Specific proteins were identified by Western blot, using the following primary antibodies: Cell Signaling—phospho-Tie2 (Y992) (Cat#: 4221), Tie2 (Cat#: 7403), phospho-Stat3 (Y705) (Cat#: 4113), Stat3 (Cat#: 4904), phospho-Akt (S473) (Cat#: 4058), Akt (Cat#: 9272), phospho-p44/42 MAPK (T202/Y204) (Cat#: 4370), p44/42 MAPK (Cat#: 4695); BD Transduction Laboratories—β1 integrin (Cat#: 610467); Millipore—α5 integrin (Cat#: AB1928) and detected with HRP-conjugated goat anti-rabbit and sheep anti-mouse secondary antibodies (GE healthcare).

| Molecule | FITC-dextran diffusion across the monolayer, single treatment [1] | Tie2 phosphorylation by ligand alone [2] |
| --- | --- | --- |
| VEGF | appeared to increase permeability (although non-significantly) | – |
| Ang1: Tie2 ligand; binds Tie2 and stimulates phosphorylation and downstream signaling (protein) SNQRRSPENSGRRYNRIQHGQCAYTFILPEHDGNCRESTTDQYNTNALQRDAPHVEPDFSSQKLQHLEHVMENYTQWLQKLENYIVENMKSEMAQIQQNAVQNHTATMLEIGTSLLSQTAEQTRKLTDVETQVLNQTSRLEIQLLENSLSTYKLEKQLLQQTNEILKIHEKNSLLEHKILEMEGKHKEELDTLKEEKENLQGLVTRQTYIIQELEKQLNRATTNNSVLQKQQLELMDTVHNLVNLCTKEGVLLKGGKREEEKPFRDCADVYQAGFNKSGIYTIYINNMPEPKKVFCNMDVNGGGWTVIQHREDGSLDFQRGWKEYKMGFGNPSGEYWLGNEFIFAITSQRQYMLRIELMDWEGNRAYSQYDRFHIGNEKQNYRLYLKGHTGTAGKQSSLILHGADFSTKDADNDNCMCKCALMLTGGWWFDACGPSNLNGMFYTAGQNHGKLNGIKWHYFKGPSYSLRSTTMMIRPLDF | – | induced phosphorylation |
| Ang2: Tie2 ligand; endogenous Tie2 antagonist and weak agonist (protein) YNNFRKSMDSIGKKQYQVQHGSCSYTFLLPEMDNCRSSSSPYVSNAVQRDAPLEYDDSVQRLQVLENIMENNTQWLMKLENYIQDNMKKEMVEIQQNAVQNQTAVMIEIGTNLLNQTAEQTRKLTDVEAQVLNQTTRLELQLLEHSLSTNKLEKQILDQTSEINKLQDKNSFLEKKVLAMEDKHIIQLQSIKEEKDQLQVLVSKQNSIIEELEKKIVTATVNNSVLQKQQHDLMETVNNLLTMMSTSNSAKDPTVAKEEQISFRDCAEVFKSGHTTNGIYTLTFPNSTEEIKAYCDMEAGGGGWTIIQRREDGSVDFQRTWKEYKVGFGNPSGEYWLGNEFVSQLTNQQRYVLKIHLKDWEGNEAYSLYEHFYLSSEELNYRIHLKGLTGTAGKISSISQPGNDFSTKDGDNDKCICKCSQMLTGGWWFDACGPSNLNGMYYPQRQNTNKFNGIKWYYWKGSGYSLKATTMMIRPADF | influenced FITC-dextran diffusion across the monolayer | insignificant effects |
